From the nanobody polyreactivity screen of Harvey et al. (2022)

Test: yeast display, Sf9 membrane polyspecificity reagent, FACS + sequencing; frameworks hold sequencing errors
Procedure, shortened: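 A synthetic nanobody library was expressed on Saccharomyces cerevisiae BJ5465 by galactose induction for 36–48 hours. The library was stained for 1 hour at 4 °C with 10% biotinylated, detergent-solubilized Sf9 membrane reagent and enriched with streptavidin microbeads before FACS. Low and high (top ~1%) gates were set on anti-HA fluorescence for expression and streptavidin fluorescence for reagent binding, and each polyreactivity label reflects the gate of origin.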

| Sequence | polyreactivity (PSR sort gate) |
| --- | --- |
| QVQLVESGGGLVQAGGSLRLSCADSGSTFTRYGMGWYRQAPGKERELVAAITTSGSSTYYADSVKGRYTISRDNAKNTVYLQMNSLKPEDTAVYYCAADWSSWGFDYWGQGTQVTVSS | low polyreactivity |
| QVQLVESGGGLVQAGGSLRLSCAASGSTFYGYAMGWYRQAPGKERELVAAITLIGTSTYYADSVKCRFTISRDNAKNTVYLQMNSLKPEDTAVYYCAAEISYGYGYWGQGTQVTVSS | low polyreactivity |
| QVQLVESGGGLVQAGGSLRLSCAASGRTFGFYGMGWYRQAPGKEREFVAAITRRGGSTYYADSVKGRFTISRDNAKNTVYLQMNRLKPEDTAVYYCAAGYSSRYRGGLDYWGQGTQVTVSS | high polyreactivity |
| QVQLVESGGGLVQAGGSLRLSCAASGFTFAVYAMGWYRQAPGKERELVAAISRSGTRTYYADSVKGRFTISRDNAKNTVYLQMNSLKPEDTAVYYCAAPWTQILDYWGQGTQVTVSS | low polyreactivity |
| QVQLVESGGGLVQAGGSLRLSSTASGFTFKLYAMGWERHATGKERELVAAISSYGGRTYYADSVKGRFTISRDNAKNTVYLQMKSLKPEDTAVYYCKAVRTVNDYHYDYWGQGTQVTVSS | high polyreactivity |
| QVQLVESGGGLVQAGGSLRLSCAASGRIFATYAMGWYRQAPGKERELVAAISDSGGRTYYADSVKGRFTISRDNAKNTVYLQMNSLKPADTALYYCAAKNGDRYARGYWGQATQVTVSS | high polyreactivity |
| QVQLVDSGGGLVQAGGSLRLSCAASGRTFGYYAMGWYRQAPGKERELVAAISWRGTSTYYADSVKGRFTISRDNAKNTVYLQMNSLKPEDTAVYYCAVGRTVAHRFIAGDYWGQGTQVTVSS | high polyreactivity |
| QVQLVESGGGLVQAGGSLRLSCAASGRIFPSYAMGWYRQAPGKERELVATISSGGRTYYADSVKGRFTISRDNAKNTVYLQMTSLKPEDTAVYYCARRSLYHVRTQIYEYWGQGTQVTVSS | low polyreactivity |
| QVQLVESGGGLVQAGGSLRLSCAASGITFQYYAMGWYRQAPGKERELVAAITSSGVSTYYADSVKGRFTISRDNAKNTVYLQMNSLKPEDTAVYYCNTVVRGWSSSAYDDWGQGTQVTVSS | low polyreactivity |
| QVQLVESGGGLVQAGGSLRLSCAASGSIFYKYMGWYRQAPGKERELVAAITWSGGSTYYADSVKGRFTISRDNAKNTVYLQMNSLKPEDTAVYYCNADDRHSRVGHSWQDAQFDYWGLGTQVTVSS | high polyreactivity |
| QVQLVETGGGLVQAGGSLRLSCAASGSTFYDNAMGWYRQAPGKERELVAAITRSGTRTYYADSVKGRFTISRDNAKNTVYLQMNSLKPEDTAVYYCNVVLYSYVTYRIITHGTYGYWGQGTQVTVSS | high polyreactivity |
| QVQIVESGGGLVQAGGSLRLSCAASGSIFVVNAMGWYRQAPRKERELVAAIDWSGDTTYYADSEKGRFTISRDYAKNTVYFQMNSLKPEDTAVYYCAAEYEFHEYDYWGQGTQVTVSS | high polyreactivity |
| QVQLVESGGGLVQAGGSLRLSCAASGSTFAVYAMGWSRKAPGKERELVATIRWSAGRTYYADSVKGRFTISRDNAKNTVYLQMNSLKPEDTAVYYCAARTWGQSTYGQGLDYWGQGTQVTVSS | high polyreactivity |
| QVQLVESGGGLVQAGGSLRLSCAASGFIFGYNAMGWYRQAPGKERELVAAITSRGDRTYYADSVKGRFTISRDNAKNTVYLQMNSLKPEDTAVYYCAKATRGYRSPYGSIGYYYWGQGTQVTVSS | high polyreactivity |
| QVQLVESGGGLFQAGGSLRLSCAASGIIFPYYVMGWSRQAPGTEREFVATISWSGGRTYYADSVKGRFTISRDNAKNTVYFQMNSLKPEDTAVYYCAAAKHYYNGYGYWGQGTQVTVSS | high polyreactivity |
| QVQLVESGGGLVQAGGSLRLSCAASGSTFYYYAMGWYRQAPGKERELVAAINSGGRTNYADSVKGRFTISRDNAKNTVYLQMNSLKPEDTAVYSCARDGYHRDYDYWGQGTQVTVSS | low polyreactivity |
| QVQLVESGGGLVQAGGSLRLSCAASGSIYRRNAMGWYRKAPRKERELVAAISSNGGSTYYADSVKGRFTISRDNAMNTVYLQMNSLKPEDSAVYYCAASPSGWRYDYWGQGTQVTVSS | high polyreactivity |
| QVQLVESGGGLVQAGGSLRISCAASGRIFNYYDMGWYRQAPGKERELVAAISWRGTSTRYADSVKGRFTISRDNAKNTVYLQMQSLKPEDTAVYYCAADDYARRFSFKYDYWGQGTQVTVSS | high polyreactivity |
| QAQLQESAGSLVQAGGGLRLSCAASGYISVGSVKGWYRQAPSKERELVASIDQGANTNYADSVKGRFTISRDNAKNNVYLQMNSLIPEDTAVYYCATETTYILNYWGQGTQVTVSS | low polyreactivity |
| QVQVVESGGGLVQAGGSLRLSCAASGFIFFTYAKGWYRPAPGKERELVADISSRGGSTYYADSVKGRFTISRDNAKNTVYLQMNSLKPEDTAVYYCARTRFWLRYRLFDYWGQGTQVTVSS | low polyreactivity |
| QVQLVESGGGLVQAGGSLRLSCAASGSIFYWNAMGWYRQAPGKERELVAGISQRGGRTSYADSVKGRFTISRDNAKNTVYLQMNSLKPEDTAVYYCAATSVYPRSGSSRYDYWGQGTQVTVSS | low polyreactivity |
| QVQLVESGGGLVQAGGSLRLSCAASGRTFYANAMGWYRQAPGKERELVAAISRGGRTYYADSVKGRFTISRDNAKNTVYLQMNIMIPEDTSVYYCAARHTTTAVYSYYRADGGYWGQGTQVTVSS | low polyreactivity |

| Sequence | polyreactivity (PSR sort gate) |
| --- | --- |
| QDQLVESGGGLVQAGGSLRLSCAASGRTFSRYALGWYRQAPGKERELVAAISWSGGTTHYADSVKGRFTISRDNAKNTVYLLMNRLKPEDTAFYYCNKLRQIEFWGQGTQVTVSS | high polyreactivity |
| QVQLVESGGGLVQAGGSLRLSCAASGSTFVGNAMGWYRQAPGKERELVANITSGGSTNYADSVKGRFTISRDNAKNTVYLQMNSLKPEDTAVYYCAAVYLWSQRREYWGQGTQVTVSS | low polyreactivity |
| QVQLVESGGGLVQAGGSLRLSCAASGRIFYVNAMGWYRQAPGKERELVAGIDDGVTTYYAVSVKGRFTSSRDNAKNTVYLQMNSLKPEDTAVYYCAKETLVILIYDYWGQGTQVTVSS | low polyreactivity |
| QVQLVESGGGLVQAGGSLRLSCAASGFTFRENTMGWYRQAPGKERELVASISWSGGSTYYADSVKGRFTISRDNAKNTVYLQMNSLKPEDTAVYYCAATYAWLSKGYRGMDYWGQGTQVTVSS | low polyreactivity |
| QVQLVESGGGLVQEGGSLRLSCAASGSIFPLYDMGWYRQAPGKERELVAGISSGGSTNYADSVKGRFTISRDNAKNTVYLQMTSLKPEDTAVYYCAATGSSRYGYWGQGTQVTVSS | low polyreactivity |
| QVQLVESGGGLVQAGGSLRLSCAASGSTFRTNVMGWYRQAPGKEREVVAAITKRGSITYYADSVKGRFTISRDNAKNTVYFQMNTLKPEDTAVYYCAARKVAVRGYAYWGQGTQVTVSS | high polyreactivity |
| QVQLVESGGGLVQAGGSLRLSCAASGRIFSRYALGWYRQAPGKERELVAGITRSGTTTYYADSVKGRFTISRDNAKNTVYLQMNSLKPEDTAVYYCAAPPIGPNLYDYWGQGTQVTVSS | high polyreactivity |
| QVQLVESGGGLVQAGGSLRLSCAASGSIFVSNAMGWSRQAPGKERELVAAITRSGGSTYYADSVKGRFTISRDNAKNTVYLQMNCLKPEDTAVYYCAAATYRYGYGYWGQGTQVTVSS | high polyreactivity |
| QVQLVESGGGLVQAGGSLRLSCAASGRTFRPYAMGWYRQAPGKERELVARITSGGGRTYYADSVKGRFTISRDNAKNTVYLQMNSLKPEDTAVYYCNKAIYSLYRDGYTNFDYWGQGTQVTVSS | high polyreactivity |
| QVQLVESGGGLVQEGGSLRLSCAASGNMLGTYAMGWYILAPGIEREFVAAISSSVGSTYYADSVKGRFTISRDNAKNSVYLQMNILKPEDTAVYYCAARKYQIYEKWGYLYDYWGQGTQVTVSS | low polyreactivity |
| QVQLVESGGGLVQAGGSHRLSCAASGSTFDYYAMGWYRQAPGKERELVAAITFSGDRTYYADSVKGRFTISRDNAKNTVYLQMNSLKPEDTAVYYCAARWFVYRYIFDYWGQGTQVTVSS | high polyreactivity |
| QVQLVESGGGLVQAGGSLRLSCAASGSTFSGYVMGWYRQAPGKERELVAAISSSGGGSTYYADSVKGRFTISRDNAKNTVYLQMNSLKPEDTAVYYCAARNYRKYDYWGQGTQVTVSS | high polyreactivity |
| QVQLVESGGGLVQAGGSLRLSCAASGSIFVYNDMGWYRQAPGKERELVAGIDWSGDRTYADSVKGRFTSSRDNAKNTVYLHMNSLKPEDTAVYYCNADEWRWDEIIPYAVDYWGQGTQVTVSS | low polyreactivity |
| QVQLVESGGGLVQAGGSLRISCAASGFTFRSYSMGWYRQAPGKERELVAAITSTGGRTYYADSVKGRFTISRDNAKNTVYLQMNILNPEDTAVYYWAAGRKHFGPVHFGYWGQGTQVTVSW | high polyreactivity |
| QVQLVESGGRLVQAGGSLRLICAASGITYYEYAMGWYRQAPGKERELVAAITSGGTTNYADSVNGRFTISLDNAKNTVYLQMNSLKPEDTAVYFCAADLIGYSYPDEYYGKGEYDYWGQGTQVTVSS | low polyreactivity |
| QVQLVESGGGLVQAGGSLRLSCAASGSTFNYNAMGWYRQAPGKERELVATITTSGGSTYYADSVKGRFTISRDNAKNTVYLQMNSLKPEDTAVYYCAARYPWYRTIDRYDYWGQGTQVTVSS | low polyreactivity |
| QVQLEESGGGLVQAGGSLRLSCAASGSTFDRNTMGWYRQAPGKERELVAAITWSSGSTYYADSVKGRFTISRDNAKNTVYLQMNSLKPEDTAVYYCAADPIRYRSRHKYGYWGQGTQVTVSS | low polyreactivity |
| QVQLVESGGGLVQAGGSLRLSCAASGRIFRFYAMGWYRQAPGKDRELVAAISSRGGSTYYADSVTGRFTISRDNAKNTVYLQMNSLKPEDTAVYYCAKRSQKAYKYRDYRFDYWGQGTQVTVSS | high polyreactivity |
| QVQLVESGGGLVQAGGSLRLSCAASGFIFAWNAMGWYRQAPGKERELVASISSGGGSTYYADSVKGRFTISRDNAKNTVYLQMNSLKPEDTAVYYCAASYAYLRGLHYYKYDSWGQGTQVTVSS | low polyreactivity |
| QDQLVESGGGLVQAGGSLRLSCAASVITFVRNAKGWYRQAPGKERELVAAMSGRGGITYYADSVKGRFTISRDNAKNTVYLQMNSLKPEDTAVYYCAASSAGSSYNYWGQGTQVTVSS | high polyreactivity |
| QVQLVESGGGLVQAGGSLRLSCAASGITFYPYAMGWYSQAPGKEWELVADITWSGGSTYYADSVKGRFTISRDNAKNTVYLQMNSLKPEDSAVYYCNRKSYRLRSKVRGQYLLGYDWGQGTQVTVSS | high polyreactivity |
